Data published in publication PMC9388512 (Nature Communications, 2022).
FAM = carboxyfluorescein label

How the values were obtained:
[1] = target: T1, eIF4E, purified recombinant human full-length (human, UniProt P06730 1-217); experiment: fluorescence polarisation; competition: eIF4E 200 nM, FAM-labelled eIF4G1 peptide 50 nM, VH domains titrated; PBS pH 7.4, 0.1% Tween 20; conditions: both partners purified
T1 construct: eIF4E, human, full-length clone in pET11d; m7GTP was present at immobilisation and in the crystals; also called pure eIF4E; eukaryotic translation initiation factor 4E

[2] = target: T1, eIF4E, purified recombinant human …; experiment: SPR; 4E-BP1^4ALA over eIF4E amine-coupled to a CM5 chip; single or multi cycle not told; fitted with a 1:1 model (poor fit) and then with a 2-state model; n = 3; conditions: both partners purified

T1 sequence (P06730 whole entry, the tested form may be a part): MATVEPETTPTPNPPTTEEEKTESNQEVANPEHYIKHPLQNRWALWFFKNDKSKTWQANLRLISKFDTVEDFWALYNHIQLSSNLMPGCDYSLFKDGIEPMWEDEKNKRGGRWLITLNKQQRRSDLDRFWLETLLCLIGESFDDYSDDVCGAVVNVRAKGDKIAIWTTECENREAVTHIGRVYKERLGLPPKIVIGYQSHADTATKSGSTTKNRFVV

binding result [1] | Kd [2] | Binder
binds |  | Ac-KKRYSRDFLLALQK(FAM)-NH2 (also called labelled peptide; tracer peptide; source: synthetic peptide; bought: Mimotopes) [FAM labelled eIF4G1 peptide (Ac-KKRYSRDFLLALQK-(FAM)-NH2)]
 | 680 pM | 4E-BP1^4ALA, purified (natural protein, UniProt Q13541 1-118, looked up) MSGGSSCSQTPSRAIPATRRVVLGDGVQLPPGDYSTAPGGTLFSTAPGGTRIIYDRKFLMECRNAPVTKAPPRDLPTIPGVTSPSSDEPPMEASQSHLRNSPEDKRAGGEESQFEMDI
